The source of these data is publication PMC3438747, “Role of Motif III in Catalysis by Acetyl-CoA Synthetase” (Archaea, 2012).

The target in series [1] is Acs1Mt Ala500Thr variant (Methanothermobacter thermautotrophicus). Kind of series: SEC; Superose 12 gel filtration column, 50 mM Tris pH 7.5 with 150 mM KCl, calibrated with mass standards; subunit composition (dimer). A general note: Size exclusion chromatography separates by hydrodynamic size, large species first.
For series [2], the target named is Acs1Mt Gly501Ala variant (Methanothermobacter thermautotrophicus). The description is as above.
In series [3] the target is Acs1Mt Asp502Asn variant (Methanothermobacter thermautotrophicus). The series is described as above.
Series [4] addresses T1, acetyl-CoA synthetase (Acs1Mt) (Methanothermobacter thermautotrophicus, UniProt O26319).
T1 construct: gene MTH_217
T1 sequence (O26319 1-558): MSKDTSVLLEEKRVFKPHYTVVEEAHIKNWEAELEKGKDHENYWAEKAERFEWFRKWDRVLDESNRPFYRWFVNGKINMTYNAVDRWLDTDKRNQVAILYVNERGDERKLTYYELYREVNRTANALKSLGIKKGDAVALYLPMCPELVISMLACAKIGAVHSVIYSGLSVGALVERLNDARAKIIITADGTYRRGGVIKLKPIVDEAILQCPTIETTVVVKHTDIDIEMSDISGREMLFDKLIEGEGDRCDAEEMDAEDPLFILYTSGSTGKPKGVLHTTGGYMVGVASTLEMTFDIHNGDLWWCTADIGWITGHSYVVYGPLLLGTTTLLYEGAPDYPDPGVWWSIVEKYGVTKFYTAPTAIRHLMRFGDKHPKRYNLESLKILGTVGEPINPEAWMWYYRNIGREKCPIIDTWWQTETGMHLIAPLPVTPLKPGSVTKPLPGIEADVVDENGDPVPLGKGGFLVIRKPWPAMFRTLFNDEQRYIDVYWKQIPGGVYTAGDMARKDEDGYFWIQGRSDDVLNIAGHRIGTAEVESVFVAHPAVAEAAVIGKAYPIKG
Kind of series: inhibition of purified enzyme, hydroxamate assay. The series is classed as biochemical.

Series [5] deals with Acs1Mt Thr499Ala variant (Methanothermobacter thermautotrophicus). Kind of series: SEC; Superose 12 gel filtration column, 50 mM Tris pH 7.5 with 150 mM KCl, calibrated with mass standards; subunit composition (dimer).
Series [6] addresses Methanothermobacter thermautotrophicus Acs1 (AMP-forming acetyl-CoA synthetase), unaltered (Methanothermobacter thermautotrophicus). The series is described as above.
For series [7], the target named is Acs1Mt Asp502Ala variant (Methanothermobacter thermautotrophicus). The description is as above.
Series [8] has as its target Acs1Mt Asp502Glu variant (Methanothermobacter thermautotrophicus). The series is described as above.
The target in series [9] is Acs1Mt Tyr498Ala variant (Methanothermobacter thermautotrophicus). The description is as above.
A further series has as its target T2, Acs1Mt (Methanothermobacter thermautotrophicus, UniProt Q2XNL6).
T2 construct: gene acs1; recombinant in E. coli Rosetta Blue (DE3); Q-sepharose and phenyl sepharose purification; dimer; motif III 498-YTAGD-502
Kind of series: hydroxamate assay, reciprocal plot of velocity vs inhibitor. The series is classed as biochemical. The following applies: all three substrates (acetate, MgATP, CoA) saturating; pH 7.5; 65 °C.

Series [10] has as its target Acs1Mt Tyr498Phe variant (Methanothermobacter thermautotrophicus). Kind of series: SEC; Superose 12 gel filtration column, 50 mM Tris pH 7.5 with 150 mM KCl, calibrated with mass standards; subunit composition (dimer).
Substrate in the series “purified protein”: CC(=O)O
Kind of series: purified protein. The following applies: Mg2+.

Substrate in series [11]: CC(C)(COP(=O)(O)OP(=O)(O)OC[C@H]1O[C@@H](n2cnc3c(N)ncnc32)[C@H](O)[C@@H]1OP(=O)(O)O)[C@@H](O)C(=O)NCCC(=O)NCCS
Kind of series: Michaelis-Menten kinetics of purified recombinant enzyme, hydroxamate assay (Km). The series is classed as biochemical, Methanothermobacter thermautotrophicus. The following applies: Mg2+.

Substrate in series [12]: Nc1ncnc2c1ncn2[C@@H]1O[C@H](COP(=O)(O)OP(=O)(O)OP(=O)(O)O)[C@@H](O)[C@H]1O
The description is as above. The series is classed as biochemical, Methanothermobacter thermautotrophicus. Particulars: Mg2+ active site; Asp502 interacts with the OH groups of the ribose moiety (model).

T2 sequence (Q2XNL6 1-634): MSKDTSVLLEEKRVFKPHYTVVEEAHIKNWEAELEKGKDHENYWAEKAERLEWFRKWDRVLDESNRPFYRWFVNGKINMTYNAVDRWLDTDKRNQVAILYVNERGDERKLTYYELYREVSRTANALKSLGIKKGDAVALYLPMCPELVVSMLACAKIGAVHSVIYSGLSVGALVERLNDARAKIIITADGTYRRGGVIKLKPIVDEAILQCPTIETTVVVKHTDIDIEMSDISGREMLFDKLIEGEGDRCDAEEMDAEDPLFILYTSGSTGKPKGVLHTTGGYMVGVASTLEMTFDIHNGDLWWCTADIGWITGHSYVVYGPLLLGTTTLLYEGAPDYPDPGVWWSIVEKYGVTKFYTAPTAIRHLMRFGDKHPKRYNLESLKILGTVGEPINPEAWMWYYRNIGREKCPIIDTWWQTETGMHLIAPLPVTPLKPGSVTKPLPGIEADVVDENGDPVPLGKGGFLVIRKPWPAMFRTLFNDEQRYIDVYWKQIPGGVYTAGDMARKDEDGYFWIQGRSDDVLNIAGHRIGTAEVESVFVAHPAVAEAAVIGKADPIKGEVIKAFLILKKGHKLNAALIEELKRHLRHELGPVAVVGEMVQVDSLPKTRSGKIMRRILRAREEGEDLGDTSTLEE

Take Acs1Mt Ala500Thr variant (enzyme): the stoichiometry N (commonly the number of molecules, sites or subunits per partner or assembly) in series [1] came to 2.
In [2], Acs1Mt Gly501Ala variant (enzyme) displayed a stoichiometry N of 2.
Consider Acs1Mt Asp502Asn variant (enzyme), for which the stoichiometry N in series [3] was determined as 2.
With `O=C[C@H](O)[C@H](O)[C@H](O)CO` [ribose], affinity in series [4] was put at a Ki of 53 mM.
Acs1Mt Thr499Ala variant (enzyme): in series [5], the stoichiometry N was found to be 2.
“Methanothermobacter thermautotrophicus Acs1 (AMP-forming acetyl-CoA synthetase), unaltered (enzyme)” showed a stoichiometry N in series [6] of 2.
For the molecule Acs1Mt Asp502Ala variant (enzyme), in [7], the stoichiometry N was found to be 2.
In series [8], Acs1Mt Asp502Glu variant (enzyme) displayed a stoichiometry N of 2.
Molecule Acs1Mt Tyr498Ala variant (enzyme) came in with a stoichiometry N in series [9] of 2.
`OC1OC[C@@H](O)[C@@H](O)[C@H]1O` (some centres unmarked) [ribose]: the Ki (usually a dissociation constant, usually derived from enzyme kinetics or from competition with a known ligand) at Acs1Mt was determined as 53 mM.
Acs1Mt Tyr498Phe variant (enzyme) displayed a stoichiometry N in series [10] of 2.

B1: acetyl-CoA synthetase (Acs1Mt) (Methanothermobacter thermautotrophicus str. Delta H) (protein)
chain: MSKDTSVLLEEKRVFKPHYTVVEEAHIKNWEAELEKGKDHENYWAEKAERFEWFRKWDRVLDESNRPFYRWFVNGKINMTYNAVDRWLDTDKRNQVAILYVNERGDERKLTYYELYREVNRTANALKSLGIKKGDAVALYLPMCPELVISMLACAKIGAVHSVIYSGLSVGALVERLNDARAKIIITADGTYRRGGVIKLKPIVDEAILQCPTIETTVVVKHTDIDIEMSDISGREMLFDKLIEGEGDRCDAEEMDAEDPLFILYTSGSTGKPKGVLHTTGGYMVGVASTLEMTFDIHNGDLWWCTADIGWITGHSYVVYGPLLLGTTTLLYEGAPDYPDPGVWWSIVEKYGVTKFYTAPTAIRHLMRFGDKHPKRYNLESLKILGTVGEPINPEAWMWYYRNIGREKCPIIDTWWQTETGMHLIAPLPVTPLKPGSVTKPLPGIEADVVDENGDPVPLGKGGFLVIRKPWPAMFRTLFNDEQRYIDVYWKQIPGGVYTAGDMARKDEDGYFWIQGRSDDVLNIAGHRIGTAEVESVFVAHPAVAEAAVIGKAYPIKG
As for B1, the values for the Km (in “purified protein”; in series [11]; in [12]) were 3.5 ± 0.1 mM, 0.19 ± 0.003 mM and 3.3 ± 0.2 mM, respectively.
